Measured values published in patent publication US20190048076A1.

Target: CD16 on CD16-transfected BW cells (FcγRIIIA-transfected BW cell line) (UniProt P08637)
Assay: FACS on BW-CD16 cells

Chain of UniProt P08637 (P08637 17-254 limits assumed): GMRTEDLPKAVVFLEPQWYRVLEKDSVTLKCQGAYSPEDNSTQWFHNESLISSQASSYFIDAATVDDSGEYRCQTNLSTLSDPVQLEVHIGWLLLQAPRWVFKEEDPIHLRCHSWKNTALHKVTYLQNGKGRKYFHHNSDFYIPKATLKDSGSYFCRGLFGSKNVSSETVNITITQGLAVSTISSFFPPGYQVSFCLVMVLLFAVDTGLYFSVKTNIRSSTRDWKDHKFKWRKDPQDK

## rituximab (intact, undigested) (antibody)
  binding percentage: 99.8%
